Results on eight proteins are retold here after paper PMC11852578, “Enhanced Site-Specific Fluorescent Labeling of Membrane Proteins Using Native Nanodiscs” (Biomolecules, 2025).

Series [1] deals with the molecule itself. In words: SDS-PAGE; HpUreI L134C purified in LDAO instead of DDM.
Series [2] concerns the molecule itself. The experiment in a line: SEC; HpUreI L134C in Glyco-DIBMA native nanodiscs, labelled with AF647 maleimide; standard buffer 150 mM NaCl, 50 mM Tris, pH 7.4.
Series [3] deals with the molecule itself. In words: fluorescence correlation spectroscopy (molecular brightness); SEC-purified, AF647-labelled protein in Glyco-DIBMA nanodiscs; brightness compared with free AF647 maleimide dye at the same laser power, assuming labelling of all monomers.
Series [4] concerns the molecule itself. The experiment in a line: SEC; KvAP in 0.25% (w/v) DM micelles; Superdex 200 Increase 10/300; SEC buffer 100 mM KCl, 25 mM Tris, pH 8; size estimated against gel filtration standards.
Series [5] deals with the molecule itself. In words: SEC; KvAP in Glyco-DIBMA native nanodiscs, labelled with AF647 maleimide; standard buffer 150 mM KCl, 50 mM Tris, pH 7.4; UV and fluorescence detection.

Where a chain is given by its changes, count along the chain named. Names and notes keep the numbering of the source.

B1: HpUreI L134C single-cysteine mutant, Helicobacter pylori proton-gated urea channel, in detergent (DDM or LDAO) (natural protein)
chain: MLGLVLLYVGIVLISNGICGLTKVDPKSTAVMNFFVGGLSIICNIVVITYSALHPTAPVEGAEDIAQVSHHLTSFYGPATGLLFGFTYLYAAINHTFGLDWRPYSWYSLFVAINTIPAAILSHYSDMLDDHKVCGITEGDWWAIIWLAWGVLWLTAFIENILKIPLGKFTPWLAIIEGILTAWIPAWLLFIQHWV
notes: urea channel HpUreI, Helicobacter pylori; The hexamer remained unlabelled in detergent; with TCEP only aggregated and non-hexameric oligomers were labelled; also called detergent-solubilized HpUreI; source: E. coli C43, membranes solubilised in DDM or LDAO, purified (cobalt beads, HRV 3C cleavage, SEC)
As for B1, the “stoichiometry N” value in series [1] stood at 6.

B2: HpUreI L134C single-cysteine mutant labelled with AF647 maleimide, in Glyco-DIBMA native nanodiscs (natural protein)
chain: B1 chain
modifications: Alexa Fluor 647 maleimide on the introduced cysteine L134C
notes: urea channel HpUreI, Helicobacter pylori; Same construct as m7, but labelled and in a nanodisc; no removal of the His tag is told for the nanodisc preparation; also called nanodisc-embedded HpUreI; source: E. coli C43, membranes extracted with Glyco-DIBMA, purified (Ni-NTA with on-column labelling, SEC)
On to B2, for which the results for the “stoichiometry N” value in series [2] and in series [3] were 6 and roughly 6, respectively.

B3: KvAP wild type, archaeal voltage-gated potassium channel from Aeropyrum pernix, in DM detergent micelles (natural protein)
chain: GGRVRNIGDVMEHPLVELGVSYAALLSVIVVVVEYTMQLSGEYLVRLYLVDLILVIILWADYAYRAYKSGDPAGYVKKTLYEIPALVPAGLLALIEGHLAGLGLFRLVRLLRFLRILLIISRGSKFLSAIADAADKIRFYHLFGAVMLTVLYGAFAIYIVEYPDPNSSIKSVFDALWWAVVTATTVGYGDVVPATPIGKVIGIAVMLTGISALTLLIGTVSNMFQKILVGEPEPSCSPAKLAEMVSSMSEEEFEEFVRTLKNLRRLENSMK
notes: voltage-gated potassium channel KvAP, Aeropyrum pernix; native cysteine printed as C260; Labelling with AF647 maleimide failed in detergent, so the protein was unlabelled; also called wild-type KvAP; source: E. coli C43, pET21a-derived vector, membranes solubilised in DM, purified (Ni-NTA, SEC)
As to B3, in series [4], the “stoichiometry N” value was 4.

B4: KvAP wild type labelled with AF647 maleimide, in Glyco-DIBMA native nanodiscs (natural protein, Aeropyrum pernix)
chain: B3 chain
modifications: Alexa Fluor 647 maleimide on the native cysteine C260
notes: voltage-gated potassium channel KvAP, Aeropyrum pernix; native cysteine printed as C260; Same construct as m1, but labelled and in a polymer-encapsulated lipid nanodisc; also called wild-type KvAP; nanodisc-purified wild-type KvAP; source: E. coli C43, membranes extracted with Glyco-DIBMA, purified (Ni-NTA with on-column labelling, SEC)
For B4, the “stoichiometry N” value is 4 in series [5] and roughly 4 in series [3].

B5: KvAP E275C single-cysteine mutant, in DM detergent micelles (natural protein, Aeropyrum pernix)
chain: B3 chain with C236A, E251C
notes: voltage-gated potassium channel KvAP, Aeropyrum pernix; native cysteine mutated to alanine and cysteine introduced at E275; Labelling failed in detergent, so the protein was unlabelled; source: E. coli C43, pET21a-derived vector, membranes solubilised in DM, purified (Ni-NTA, SEC)
For B5, in series [4], the “stoichiometry N” value was 4.

B6: KvAP K102C single-cysteine mutant labelled with AF647 maleimide, in Glyco-DIBMA native nanodiscs (natural protein, Aeropyrum pernix)
chain: B3 chain with K78C, C236A
modifications: Alexa Fluor 647 maleimide on the introduced cysteine K102C
notes: voltage-gated potassium channel KvAP, Aeropyrum pernix; native cysteine mutated to alanine and cysteine introduced at K102; Same construct as m3, but labelled and in a nanodisc; also called mutant K102C; source: E. coli C43, membranes extracted with Glyco-DIBMA, purified (Ni-NTA with on-column labelling, SEC)
Consider B6, for which the “stoichiometry N” value in series [3] was roughly 4.

B7: KvAP E275C single-cysteine mutant labelled with AF647 maleimide, in Glyco-DIBMA native nanodiscs (natural protein, Aeropyrum pernix)
chain: B3 chain with C236A, E251C
modifications: Alexa Fluor 647 maleimide on the introduced cysteine E275C
notes: voltage-gated potassium channel KvAP, Aeropyrum pernix; native cysteine mutated to alanine and cysteine introduced at E275; Same construct as m4, but labelled and in a nanodisc; also called mutant E275C; source: E. coli C43, membranes extracted with Glyco-DIBMA, purified (Ni-NTA with on-column labelling, SEC)
For B7, in series [3], the “stoichiometry N” value is roughly 4.

B8: KvAP K102C single-cysteine mutant, in DM detergent micelles (natural protein, Aeropyrum pernix)
chain: B3 chain with K78C, C236A
notes: voltage-gated potassium channel KvAP, Aeropyrum pernix; native cysteine mutated to alanine and cysteine introduced at K102; Labelling failed in detergent, so the protein was unlabelled; source: E. coli C43, pET21a-derived vector, membranes solubilised in DM, purified (Ni-NTA, SEC)
B8: in series [4], the “stoichiometry N” value is 4.
